In US8420311B2, “Method to block the infection by flaviviruses, molecules and uses” (Centro de Ingenieria Genetica y Biotecnologia, priority 2006, dated 2013):

What was measured:
DV2 [1] = assay type: cell-based, dengue virus; settings: protein 25 μg/mL pre-incubated with virus 1 hour at 25° C.
Procedure: (§1) FIG. 21. Chromatographic profile of the purification of the A2MR using affinity chormatography with immobilized A2M (A) and SDS-PAGE analysis of fractions eluted using a 5-15% gradient gel (B). Effect of the pre-incubation of chromatography fractions with DV2 on the infection of Vero cells (C). The plaque reduction neutralization assay was performed as described in FIG. 20. (D) Mice protection assay using the DV-induced encephalitis model.
To this aim, a viral preparation containing 100 infective viral particles was pre-incubated with the different fractions at a protein concentration of 25 μg/mL for 1 hour at 25° C. Next, the virus was added to Vero cell monolayers and infection was allowed to occur for 45 minutes at 37° C. Afterwards virus/protein mixtures were removed, the cells were washed with fresh medium and finally the cells were incubated for 5 days at 37° C. in high density medium.

DV2 [2] = assay: Mice protection assay using the DV-induced encephalitis model; assay type: in vivo, Balb/C mice; settings: intra-cranial lethal dosis of DV2 (FIG. 21D)
Procedure: as §1
FIG. 22. Mice protection assay using the DV-induced encephalitis model. PepNR GAGs binding: peptide formed by a sequence fragment of binding to glycosaminoglycans and a non-related sequence fragment.
Groups of 12 adult Balb/C mice (20 g average body weight) were anesthesized, inoculated by intracranial injection with lethal dosis of DV2 and observed daily for 21 days. The mixtures of peptides with the virus were inoculated in the same way. The volume of the sample inoculated was 20 μL.
The mouse model of dengue encephalitis was used to investigate the potential of the peptide HDIII3CL to protect against DV2 infection. A group of 12 mice were inoculated with lethal dosis of DV2 in combination with 15 μg and 1.5 μg of HDIII3CL peptide. As negative control was used a peptide composed by fragment of 14 aminoacids of a sequence with known heparin binding activity followed by 16 aminoacids of a sequence non-related to the envelope protein of DV. […]

[3] = target: T1, DIIIE2J (DIII from protein E of DV2) (Dengue virus type 2, UniProt P07564); assay: Direct binding between DIIIE2J and A2M measured by Biacore; parameters: species or system DV2 strain Jamaica 1409; settings: restated in example 10
T1 construct: made in house; host or cells: Escherichia coli BL21(DE3)
Procedure: FIG. 6. Direct binding between DIIIE2J and A2M, measured by Biacore. Response curves obtained during and after the injection of (B) Monoclonal antibodies against DV serotype 2 (3H5) and against all FV (4G2); (C) Polyclonal mouse antibody preparations obtained by immunization with DV1 and DV2, including pre-immune sera and (D) A2M dilutions, at concentrations from 0.3 μMol/L to 3 μMol/L. The run was performed on PBS pH 7.4 at 25° C. The different A2M dilutions were loaded at a flow of 5 μL/min for 20 min. The response is represented in resonance units (RU) corrected for unspecific binding using the response from the channel without immobilized protein (less than 5% of the specific signal).
A cm5 chip (Biacore, Sweden) was used for the covalent immobilization of the DIIIE2J and LRP1 proteins. The immobilization was carried out at 25° C., with a flow of 5 μL/min and using HBS (Biacore, Sweden) as running buffer. The surface of the chip was activated by loading 35 μL of 0.2 Mol/L […] (EDC) and 0.05 Mol/L N-hydroxysuccinimide (NHS). Afterwards the proteins, dissolved in 10 mM sodium acetate buffer pH 4.5, were loaded into the system. At the end of the immobilization, 35 μL of 1 M ethanolamine pH 8 were loaded into the system in order to block any remaining free activated groups. The channel to be used as a negative control in each case received only the activating injections with the EDC:NHS solution and the blocking with ethanolamine, employing the same flow and injection volume. The results were analyzed using the BIAevaluation ver. 4.1 software application package (Biacore, Sweden).
In order to estimate the strength of the interaction between DIIIE2J and human A2M, 1600 RU of DIIIE2J were covalently immobilized on a CM5 chip (channel 1, FIG. 6A) (Biacore, Sweden), following the procedure described in the Materials and Methods section. […]

DV = assay: Inhibition of the infection of Vero cells with DV by pre-incubation of the virus with A2M; assay type: cell-based, dengue virus; settings: stated to correspond with the affinity constant for DIIIE2J
Procedure: (§2) FIG. 20. Inhibition of the infection of Vero cells with DV by pre-incubation with A2M. Viral preparations were incubated 1 h at 25° C. (A and C) or the indicated time (B) with the proteins i. e. activated A2M (A2Mact), non-activated A2M (A2M no act) and a non-related protein (NR). The mixtures of the proteins with the virus were added to monolayers of Vero cells and incubated for 1 h at 37° C. The cell monolayers were washed to eliminate non-bound virus. Next, medium MEM supplemented with non-essential amino acids and 1% FBS, 1% CMC was added and the cells were incubated for 5 days at 37° C. in a CO2 incubator. To visualize the viral plaques, Vero cells were stained using Naphtol Blue Black. All experimental points were performed on duplicates.
To obtain further evidences of the interaction of DV with A2M, the two variants of the protein i.e. activated and non-activated were used in assays of inhibition of infection of Vero cells. The viral preparation was incubated with solutions of activated A2M of higher concentrations than the physiological concentrations reached by this variant of the protein. Solutions of equimolar concentration of non-activated A2M and a non-related protein were used as negative controls. […]

serotype 1 of DV = assay: as above; assay type: cell-based, dengue virus; settings: FIG. 20C
Procedure: as §2

serotype 3 of DV = assay: as above; assay type: cell-based, dengue virus; settings: FIG. 20C
Procedure: as §2

Vero cells = assay: Binding of fluoresceinated proteins to the surface of Vero cells (flow cytometry); assay type: cell-based, monkey; settings: fluoresceinated proteins (FIG. 7A)
Procedure: FIG. 7. Inhibition of the binding of DIIIE2J to Vero cells by A2M and RAPR13. The pre-fixed cells were incubated with the fluoresceinated proteins, and the intensity of the fluorescence due to binding of the fluoresceinated ligands to the cells was measured by flow cytometry. Each experimental point represents data gathered from a minimum of 20 000 cells. (A) Binding of A2M and RAPR13 to the cells. The depicted values correspond to the average of the intensity of the fluorescence at each point of the assay minus the fluorescence obtained with untreated cells. (B) and (C) The cells were incubated with fluoresceinated DIIIE2J in the presence or absence of the non-fluoresceinated ligands, using the molar ratio indicated on each case. The % binding was calculated from the ratio of the average intensity of the fluorescence of the cells incubated with the mixture of fluoresceinated DIIIE2J plus the proteins, between that of the cells incubated only with fluoresceinated DIIIE2J.
In the case of cultured Vero cells, they were detached from the surface of the culture flask without using proteases, by incubation with PBS pH 7.4, 5 mM EDTA for 10 min. at 37° C., gently tapping the outside of the flask.
The cells, collected and washed as described above, were incubated in fixing solution (PBS pH 7.4, 2% paraformaldehyde, 0.01% NaN3, 1 mM CaCl2, 1 mM MgCl2 for 30 min at 4° C., and the fixing solution was then eliminated by centrifugation at 350×g for 5 min a 4° C. […] The intensity of the fluorescence was quantified by flow cytometry on a PAS III cytometer (Partec, Germany). The values for each experimental point were calculated from measurements on a minimum of 20 000 cells.
Given that this cell line is derived from monkey kidney cells and that the ligands for the A2MR receptor used in the assays are of human origin, a preliminary and necessary step was the corroboration of the binding of the RAPR13 and A2M MeNH2 proteins to Vero cells. With this aim, these proteins were fluoresceinated, and their binding to the surface of Vero cells was measured using flow cytometry. […]

T1 sequence (P07564 568-687, looked up, natural form): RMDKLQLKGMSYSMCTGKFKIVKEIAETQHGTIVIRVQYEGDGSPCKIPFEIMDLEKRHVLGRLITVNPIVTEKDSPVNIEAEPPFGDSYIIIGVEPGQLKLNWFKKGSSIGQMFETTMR

Molecule	neutralization of the infection of DV2 (DV2 [1])	protective effect in mice encephalitis model (DV2 [2])	Kd [3] [nM]	IC50 (DV) [nM]	infection of Vero cells by serotype 1 of DV (serotype 1 of DV)	infection of Vero cells by serotype 3 of DV (serotype 3 of DV)	binding to the surface of Vero cells (Vero cells)
Purified A2MR: α-chain of the A2MR receptor purified from human plasma by affinity chromatography on immobilized MeNH2_A2M	potent neutralization	significative protective effect					
activated A2M: purified human A2M activated by incubation with methylamine (protein) SVSGKPQYMVLVPSLLHTETTEKGCVLLSYLNETVTVSASLESVRGNRSLFTDLEAENDVLHCVAFAVPKSSSNEEVMFLTVQVKGPTQEFKKRTTVMVKNEDSLVFVQTDKSIYKPGQTVKFRVVSMDENFHPLNELIPLVYIQDPKGNRIAQWQSFQLEGGLKQFSFPLSSEPFQGSYKVVVQKKSGGRTEHPFTVEEFVLPKFEVQVTVPKIITILEEEMNVSVCGLYTYGKPVPGHVTVSICRKYSDASDCHGEDSQAFCEKFSGQLNSHGCFYQQVKTKVFQLKRKEYEMKLHTEAQIQEEGTVVELTGRQSSEITRTITKLSFVKVDSHFRQGIPFFGQVRLVDGKGVPIPNKVIFIRGNEANYYSNATTDEHGLVQFSINTTNVMGTSLTVRVNYKDRSPCYGYQWVSEEHEEAHHTAYLVFSPSKSFVHLEPMSHELPCGHTQTVQAHYILNGGTLLGLKKLSFYYLIMAKGGIVRTGTHGLLVKQEDMKGHFSISIPVKSDIAPVARLLIYAVLPTGDVIGDSAKYDVENCLANKVDLSFSPSQSLPASHAHLRVTAAPQSVCALRAVDQSVLLMKPDAELSASSVYNLLPEKDLTGFPGPLNDQDDEDCINRHNVYINGITYTPVSSTNEKDMYSFLEDMGLKAFTNSKIRKPKMCPQLQQYEMHGPEGLRVGFYESDVMGRGHARLVHVEEPHTETVRKYFPETWIWDLVVVNSAGVAEVGVTVPDTITEWKAGAFCLSEDAGLGISSTASLRAFQPFFVELTMPYSVIRGEAFTLKATVLNYLPKCIRVSVQLEASPAFLAVPVEKEQAPHCICANGRQTVSWAVTPKSLGNVNFTVSAEALESQELCGTEVPSVPEHGRKDTVIKPLLVEPEGLEKETTFNSLLCPSGGEVSEELSLKLPPNVVEESARASVSVLGDILGSAMQNTQNLLQMPYGCGEQNMVLFAPNIYVLDYLNETQQLTPEVKSKAIGYLNTGYQRQLNYKHYDGSYSTFGERYGRNQGNTWLTAFVLKTFAQARAYIFIDEAHITQALIWLSQRQKDNGCFRSSGSLLNNAIKGGVEDEVTLSAYITIALLEIPLTVTHPVVRNALFCLESAWKTAQEGDHGSHVYTKALLAYAFALAGNQDKRKEVLKSLNEEAVKKDNSVHWERPQKPKAPVGHFYEPQAPSAEVEMTSYVLLAYLTAQPAPTSEDLTSATNIVKWITKQQNAQGGFSSTQDTVVALHALSKYGAATFTRTGKAAQVTIQSSGTFSSKFQVDNNNRLLLQQVSLPELPGEYSMKVTGEGCVYLQTSLKYNILPEKEEFPFALGVQTLPQTCDEPKAHTSFQISLSVSYTGSRSASNMAIVDVKMVSGFIPLKPTVKMLERSNHVSRTEVSSNHVLIYLDKVSNQTLSLFFTVLQDVPVRDLKPAIVKVYDYYETDEFAIAEYNAPCSKDLGNA			100	~100	inhibited infection	inhibited infection	concentration-dependant and saturable binding behavior
